This is an account of results in patent publication US20220153859A1 (ANOKION, published 2022).

Experiment [1] deals with T1, Human glycophorin A on human erythrocytes (human, UniProt P02724 20-150).
T1 construct: whole, on cells; Target of the flow cytometry assays on human erythrocytes; also called human GPA; hGPA
T1 sequence (looked up): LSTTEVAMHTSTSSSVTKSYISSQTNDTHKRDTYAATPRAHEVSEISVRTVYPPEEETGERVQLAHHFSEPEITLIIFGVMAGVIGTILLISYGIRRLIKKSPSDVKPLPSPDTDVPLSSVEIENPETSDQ
Nature of the experiment: flow cytometry on human erythrocytes, Fab in culture supernatant [C]. The procedure, abridged:
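Fabs chosen from one CDR library by next-generation-sequencing enrichment were expressed as soluble Fabs in HEK cells in high-throughput format. Fab concentration in the culture supernatant was quantified by Octet biolayer interferometry. Supernatant Fabs were tested for binding to human erythrocytes by flow cytometry, read as median fluorescence intensity curves. These curves were compared with the parental Fab.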
Background: A flow cytometer gives signals particle by particle.

Experiment [2] addresses T1, Human glycophorin A on human …. Description: flow cytometry (FACS) on human erythrocytes, soluble Fab.
For experiment [3], the target named is T2, Human glycophorin A extract (hGPA extract) (human, UniProt P02724 20-150).
T2 construct: also called human GPA extracted from red blood cells (extract)
T2 sequence (looked up): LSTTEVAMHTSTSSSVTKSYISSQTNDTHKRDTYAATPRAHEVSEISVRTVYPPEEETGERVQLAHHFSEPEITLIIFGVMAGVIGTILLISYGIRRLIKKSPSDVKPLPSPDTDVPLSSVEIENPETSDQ
Nature of the experiment: Octet BLI, hGPA extract, apparent; biphasic off-rate to fit data.

For experiment [4], the target named is T2, Human glycophorin A extract (hGPA …). Nature of the experiment: Biacore SPR, hGPA extract, apparent; biphasic off-rate to fit data.
For experiment [5] the target is unchanged. Nature of the experiment: Octet BLI, hGPA extract, apparent KD; biphasic off-rate to fit data.
For experiment [6] the target is unchanged. Description: Biacore SPR, hGPA extract, apparent KD; biphasic off-rate to fit data.

B1: hF-3-103M1 Fab (humanized 3-103, clone M1; parental / wild-type Fab) (Fab, V domains shown)
VH: QVQLVQSGAEVKKPGASVKVSCTASGFNIKDTYMLWVRQAPGQGLEWMGRIDPANANSRYDPKFQGRVTITADTSTNTAYMELSSLRSEDTAVYYCVDGYMFAYWGQGTLVTVSS
VL: DVVMTQTPLSLSVTPGQPASISCKSSQSLLYSNGKTYLHWLLQKPGQSPQRLIYLVSKLDSGVPDRFSGSGSGTDFTLKISRVEAEDVGVYYCVQGTHFPLTFGQGTKLEIKR
notes: Soluble humanized Fab; also called parent Fab
As for B1, the binding result in experiment [1] is recorded as “binds”.

B2: Humanized & affinity matured 10F7-M10 Fab clone L1+2-5 (Fab)
heavy: EVQLLESGGGLVQPGKSLRLSCKASGYTFNSYFMHWVRQAPGKGLEWVGMIRPNGGTTDYNEKFKNRFTLSVDKSKNTAYLQMNSLRAEDTAVYYCARWEGSYYALDYWGQGTASTKGPSVFPLAPSSKSTSGGTAALGCLVKDYFPEPVTVSWNSGALTSGVHTFPAVLQSSGLYSLSSVVTVPSSSLGTQTYICNVNHKPSNTKVDKKVEPKSC
light: EITLTQSPATLSLSPGERATLSCRASSNVYNMYWYQQKPGQAPRLWIHRTSNLASGIPDRFSGSGSGTDYTLTISRLEPEDFAVYYCQQFTSSPYTFGQGTKVEVKRTVAAPSVFIFPPSDEQLKSGTASVVCLLNNFYPREAKVQWKVDNALQSGNSQESVTEQDSKDSTYSLSSTLTLSKADYEKHKVYACEVTHQGLSSPVTKSFNRGEC
notes: Soluble Fab from HEK cells; all domains other than VL are the same as wild-type 10F7-M10; also called YN-HR-N
B2 displayed an EC50 in experiment [2] of 8.8 nM. The koff in experiment [3] came out at 0.0081 s⁻¹; in experiment [4], 0.00808 s⁻¹. In addition, the values for the kon in experiment [3] and in experiment [4] were 790000 M⁻¹ s⁻¹ and 795000 M⁻¹ s⁻¹, respectively. For the same molecule, the Kd is 10 nM in experiment [5] and 10.2 nM in experiment [6].

B3: Humanized & affinity matured 10F7-M10 Fab clone L1+2-7 (Fab)
heavy: EVQLLESGGGLVQPGKSLRLSCKASGYTFNSYFMHWVRQAPGKGLEWVGMIRPNGGTTDYNEKFKNRFTLSVDKSKNTAYLQMNSLRAEDTAVYYCARWEGSYYALDYWGQGTASTKGPSVFPLAPSSKSTSGGTAALGCLVKDYFPEPVTVSWNSGALTSGVHTFPAVLQSSGLYSLSSVVTVPSSSLGTQTYICNVNHKPSNTKVDKKVEPKSC
light: EITLTQSPATLSLSPGERATLSCRASSNVHHMYWYQQKPGQAPRLWIHHTSLLASGIPDRFSGSGSGTDYTLTISRLEPEDFAVYYCQQFTSSPYTFGQGTKVEVKRTVAAPSVFIFPPSDEQLKSGTASVVCLLNNFYPREAKVQWKVDNALQSGNSQESVTEQDSKDSTYSLSSTLTLSKADYEKHKVYACEVTHQGLSSPVTKSFNRGEC
notes: Soluble Fab from HEK cells; all domains other than VL are the same as wild-type 10F7-M10; also called HH-HH-L
Consider B3, for which a half-maximal response in experiment [2] (EC50) required 6.9 nM. The dissociation rate constant (koff) in experiment [3] came out at 0.0037 s⁻¹; in experiment [4], 0.00371 s⁻¹. Besides, the kon in experiment [3] and in experiment [4] was 160000 M⁻¹ s⁻¹ throughout. Also, the Kd in experiment [5] was found to be 23 nM; in experiment [6], 23.2 nM.

B4: Humanized & affinity matured 10F7-M10 Fab clone L1+2-16 (Fab)
heavy: EVQLLESGGGLVQPGKSLRLSCKASGYTFNSYFMHWVRQAPGKGLEWVGMIRPNGGTTDYNEKFKNRFTLSVDKSKNTAYLQMNSLRAEDTAVYYCARWEGSYYALDYWGQGTASTKGPSVFPLAPSSKSTSGGTAALGCLVKDYFPEPVTVSWNSGALTSGVHTFPAVLQSSGLYSLSSVVTVPSSSLGTQTYICNVNHKPSNTKVDKKVEPKSC
light: EITLTQSPATLSLSPGERATLSCRASSNVFQMYWYQQKPGQAPRLWIHHTSELASGIPDRFSGSGSGTDYTLTISRLEPEDFAVYYCQQFTSSPYTFGQGTKVEVKRTVAAPSVFIFPPSDEQLKSGTASVVCLLNNFYPREAKVQWKVDNALQSGNSQESVTEQDSKDSTYSLSSTLTLSKADYEKHKVYACEVTHQGLSSPVTKSFNRGEC
notes: Soluble Fab from HEK cells; all domains other than VL are the same as wild-type 10F7-M10; also called FQ-HH-E
B4 gave an EC50 in experiment [2] of 4.6 nM. Further, the koff in experiment [3] stood at 0.0038 s⁻¹; in experiment [4], 0.00376 s⁻¹. Also, the values for the kon in experiment [3] and in experiment [4] were 610000 M⁻¹ s⁻¹ and 608000 M⁻¹ s⁻¹, respectively. The Kd in experiment [5] and in experiment [6] was 6.18 nM in each case.

B5: Humanized & affinity matured 10F7-M10 Fab clone L1+2-19 (Fab)
heavy: EVQLLESGGGLVQPGKSLRLSCKASGYTFNSYFMHWVRQAPGKGLEWVGMIRPNGGTTDYNEKFKNRFTLSVDKSKNTAYLQMNSLRAEDTAVYYCARWEGSYYALDYWGQGTASTKGPSVFPLAPSSKSTSGGTAALGCLVKDYFPEPVTVSWNSGALTSGVHTFPAVLQSSGLYSLSSVVTVPSSSLGTQTYICNVNHKPSNTKVDKKVEPKSC
light: EITLTQSPATLSLSPGERATLSCRASSNVYQMYWYQQKPGQAPRLWIHHTSFLASGIPDRFSGSGSGTDYTLTISRLEPEDFAVYYCQQFTSSPYTFGQGTKVEVKRTVAAPSVFIFPPSDEQLKSGTASVVCLLNNFYPREAKVQWKVDNALQSGNSQESVTEQDSKDSTYSLSSTLTLSKADYEKHKVYACEVTHQGLSSPVTKSFNRGEC
notes: the tie is by these residues, not by the label; also called YQ-HH-F
In turn, B5 showed an EC50 in experiment [2] of 4.6 nM. Besides, the koff in experiment [3] was found to be 0.0033 s⁻¹; in experiment [4], 0.00326 s⁻¹. Moreover, the kon came out at 480000 M⁻¹ s⁻¹ in experiment [3] and 477000 M⁻¹ s⁻¹ in experiment [4]. The Kd in experiment [5] and in experiment [6] was 6.83 nM in each case.

By EC50 is commonly meant the concentration giving half of the maximal effect. The low end stands for higher potency in that assay, the high end for lower potency in that assay. What is called koff is a measure of how fast the partners let go of each other. By kon is commonly meant a measure of how fast the partners come together.
